# Experimental data published in patent publication US20230001013A1, “STABLE MONOMERIC INSULIN FORMULATIONS ENABLED BY SUPRAMOLECULAR PEGYLATION OF INSULIN ANALOGUES” (THE BOARD OF TRUSTEES OF THE LELAND STANFORD JUNIOR …, priority 2019, published 2023).
# Legend:
# [1] = Insulin association state by SEC-MALS; format: physicochemical; conditions: for monomer / number average molecular weight (MW): zinc-free
# Excerpt: Excipient choice is important, because as in the case of Apidra (glulisine), the absence of zinc is not sufficient to result in an ultra-fast acting insulin formulation. To engineer an insulin formulation that promotes the monomer state, the effects of excipients on insulin association state under zinc-free conditions must be understood. Characterization by size exclusion chromatography with multiple angle light scattering (SEC-MALS) allows us to determine insulin molecular weight in formulation and estimate the fraction of hexamers, dimers and monomers under formulation conditions. […] To select for a mostly monomeric insulin formulation, we evaluated the effect of tonicity agents and preservatives on insulin association state.
# Number-averaged molecular weight (MW) and dispersity (Ð=Mw/Mn) of formulations were obtained using size exclusion chromatography (SEC) carried out using a Dionex Ultimate 3000 instrument (including pump, autosampler, and column compartment) outfitted with a Dawn Heleos II Multi Angle Ligh Scattering detector, and a Optilab rEX refractive index detector. The column was a Superose 6 Increase 10/300 GL from GE healthcare. Data was analyzed using Astra 6.0 software.
# Controls consisted of either (v) commercial Humalog formulation comprising glycerol (1.6%), meta-cresol (0.315%), dibasic sodium phosphate (0.188%), and zinc (0.00197%), or (vi) commercial Novolog formulation comprising glycerol (1.6%), meta-cresol (0.172%), phenol (0.15%), sodium chloride (0.058%), dibasic sodium phosphate (0.125%), and zinc (0.00196%). Insulin lispro and aspart were injected at a concentration of a minimum […] protein and a volume of 100 μL. A do/dc of 0.186 mL/g was used for all samples.
# The molar fraction of monomeric, dimeric and hexameric insulin was determined by fitting experimentally derived number-averaged (Mn) and weight-averaged (Mw) molecular weights determined by SEC-MALS to Equation 1 and Equation 2, where m, d and h, respectively, represent the molar fractions of monomeric, dimeric and hexameric insulin while I represents the molecular weight of monomeric insulin (5831 g/mol). The solver was constrained so that m+d+h=1 while m, d and h remain between 0 and 1.
# [2] = target: insulin aspart (Homo sapiens, UniProt P01308, P52D); experiment: Acridine orange dye displacement competitive binding assay; conditions: unmodified CB[7], AO displacement, one-site competitive binding model; read-out: binding affinity
# Protocol: Unmodified CB[7] was purchased from Strem Chemicals and Acridine Orange (AO) was purchased from Sigma-Aldrich. Binding of CB[7] to aspart was assessed using the AO dye displacement assay, as previously described. Briefly, 6 μM of CB[7] and 8 μM AO were combined with 100 μL of aspart samples. Aspart samples were diluted to concentrations of 0, 0.01, 0.1, 0.3, 0.5, 1, 1.5, 2, 3, 4 μm in H2O. Samples were incubated overnight in light-free conditions, and fluorescent spectra were collected on an BioTek SynergyH1 microplate reader, exciting at 485 nm and collecting the resulting fluorescent spectra from 495 to 650 nm. The decay in the peak of AO fluorescent signal was fit to a one-site competitive binding model (GraphPad Prism, version 6.0), using the CB[7]·AO equilibrium constant reported previously (Keq=2×10^5 M^−1), to determine binding constants of unmodified CB[7] to insulin.
# [3] = reported previously; cited from earlier work
# [4] = target: N-terminal phenylalanine on insulin (Homo sapiens, UniProt P01308); experiment: Host-guest binding of CB[7]-PEG to insulin
# Protocol: Referring to FIGS. 1A and 1B, existing insulin formulations contain a mixture of hexamers, dimers and monomers, which, upon subcutaneous injection, dissociate and are absorbed at different rates, shown diagrammatically in FIG. 1A. Non-covalent PEGylation is enabled by the strong specific binding between CB[7]-PEG and the N-terminal phenylalanine on insulin (KD=0.5 μM). Under high concentrations in formulation insulin will be greater than 98% bound, but after dilution upon subcutaneous injection less than 1% of CB[7]-PEG will remain associated with insulin. This differential absorption results in the rapid onset but long duration of action of these formulations, as indicated in the activity curve in FIG. 1B. […] The formulations described herein are directed to this objective.
# [5] = phosphate buffer (pH=7.4), glycerol (2.6%)
# [6] = phosphate buffer (pH=7.4), sodium chloride (0.9%)
# [7] = phosphate buffer, glycerol (2.6%) and meta-cresol (0.315%)
# [8] = phosphate buffer, glycerol (2.6%) and phenoxyethanol (0.85%)
Substance,"monomer [1, 5]","number average molecular weight (MW) [1, 5]","monomer [1, 6]","number average molecular weight (MW) [1, 6]","monomer [1, 7]","number average molecular weight (MW) [1, 7]","monomer [1, 8]","number average molecular weight (MW) [1, 8]",further results
Zinc free insulin: zinc free insulin in pure water,–,–,–,–,–,–,–,–,association state ([1]; in pure water): completely monomeric
cucurbit[7]uril [CB[7]],–,–,–,–,–,–,–,–,Kd [2]: 540 nM; Keq [3]: 200000 M⁻¹
cucurbit[7]uril-poly(ethylene glycol) [CB[7]-PEG],–,–,–,–,–,–,–,–,Kd [4]: 500 nM; CB[7]-PEG remaining associated with insulin ([4]; after dilution following subcutaneous administration): less than 1%; fraction bound (CB[7]-PEG/insulin complex) ([4]; typical (high) formulation concentrations): greater than 98%
insulin aspart,91.4%,7.4 kDa,4.8%,13 kDa,71.0%,9.4 kDa,85.2%,7.4 kDa,–
insulin lispro,89.2%,7.6 kDa,55.0%,8.7 kDa,56.7%,9.0 kDa,71.5%,8.2 kDa,–
